In this test the target is Bradykinin (Homo sapiens, UniProt P01042). In words: SPR. For orientation: SPR reads the build-up and loss of mass on a sensor chip optically.
Bradykinin, sequence (P01042 whole entry, looked up): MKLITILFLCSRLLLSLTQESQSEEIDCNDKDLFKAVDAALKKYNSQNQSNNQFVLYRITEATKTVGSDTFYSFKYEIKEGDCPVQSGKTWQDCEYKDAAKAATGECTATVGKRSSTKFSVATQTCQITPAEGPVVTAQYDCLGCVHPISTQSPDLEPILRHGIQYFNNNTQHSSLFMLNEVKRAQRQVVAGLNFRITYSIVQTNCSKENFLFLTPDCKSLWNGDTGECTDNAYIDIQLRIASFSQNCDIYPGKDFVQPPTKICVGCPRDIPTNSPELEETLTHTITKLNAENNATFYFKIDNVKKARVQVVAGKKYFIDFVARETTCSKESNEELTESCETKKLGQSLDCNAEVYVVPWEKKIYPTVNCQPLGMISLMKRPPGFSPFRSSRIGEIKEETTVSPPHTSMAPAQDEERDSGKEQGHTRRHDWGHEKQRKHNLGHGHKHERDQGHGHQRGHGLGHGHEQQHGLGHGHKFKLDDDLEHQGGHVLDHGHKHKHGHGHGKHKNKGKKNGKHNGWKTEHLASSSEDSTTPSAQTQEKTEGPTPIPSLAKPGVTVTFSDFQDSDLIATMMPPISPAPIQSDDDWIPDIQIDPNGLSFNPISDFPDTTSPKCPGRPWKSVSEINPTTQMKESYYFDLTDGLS

B1: Aminopeptidase P (APaseP) (protein)
chain: PPKVTSELLRQLRQAMRNSEYVTEPIQAYIIPSGDAHQSEYIAPCDCRRAFVSGFDGSAGTAIITEEHAAMWTDGRYFLQAAKQMDSNWTLMKMGLKDTPTQEDWLVSVLPEGSRVGVDPLIIPTDYWKKMAKVLRSAGHHLIPVKENLVDKIWTDRPERPCKPLLTLGLDYTGISWKDKVADLRLKMAERNVMWFVVTALDEIAWLFNLRGSDVEHNPVFFSYAIIGLETIMLFIDGDRIDAPSVKEHLLLDLGLEAEYRIQVHPYKSILSELKALCADLSPREKVWVSDKASYAVSETIPKDHRCCMPYTPICIAKAVKNSAESEGMRRAHIKDAVALCELFNWLEKEVPKGGVTEISAADKAEEFRRQQADFVDLSFPTISSTGPNGAIIHYAPVPETNRTLSLDEVYLIDSGAQYKDGTTDVTRTMHFGTPTAYEKECFTYVLKGHIAVSAAVFPTGTKGHLLDSFARSALWDSGLDYLHGTGHGVGSFLNVHEGPCGISYKTFSDEPLEAGMIVTDEPGYYEDGAFGIRIENVVLVVPVKTKYNFNNRGSLTFEPLTLVPIQTKMIDVDSLTDKECDWLNNYHLTCRDVIGKELQKQGRQEALEWLIRETQPISKQH
The term Kd denotes the equilibrium constant for the complex coming apart. High values mean weaker binding, low ones tighter binding. As to B1, the Kd came out at 15.3 µM.

Values taken from paper PMC5702532 (2016).
